Data reported in publication PMC8994553, “Effects of chameleon dispense-to-plunge speed on particle concentration, complex formation, and final resolution: A case study using the Neisseria gonorrhoeae ribonucleotide reductase inactive complex” (Journal of structural biology, 2021).

Target: the molecule itself
Experiment: cryo-EM structure; α and β mixed 1:1.5 (α:β) with 1 mM dATP and 1 mM CDP on ice in 50 mM HEPES pH 7.6, 15 mM MgCl2, 1 mM EDTA; chameleon 54 ms dispense-to-plunge, 6 mg/mL protein (4.3 Å); also Vitrobot grid, 0.5 mg/mL (5.6 Å); dATP-inactivating conditions

B1: Neisseria gonorrhoeae class Ia ribonucleotide reductase NrdB (β) subunit, hydroxyurea-inactivated (met-β2) (enzyme, UniProt A0ACH0F974 1-377, looked up)
chain: MSYSTFPKTKNDALKEPMFFGQPVNVARYDQQKYEVFEKLIEKQLSFFWRPEEIDVSRDRIDYANLPEHEKHIFISNLKYQTLLDSIQGRSPNVALLPLVSIPELETWVETWSFSETIHSRSYTHIIRNIVNDPSVVFDDIVENEYITARAEDIACYYDDLIEYTQYYNLLGEGVHNVGGKPVTVSLRGLKKKLYLCLMCVNVLEAIRFYVSFACSFAFAERELMEGNAKIIKLIARDEALHLTGTQHMLNLMRSGVDDPEMAEIAAELQDECFQLFKKAAEQEKEWAAYLFKDGSMIGLNKEILSQYVEYITNLRMQAVGLPAGFEGANQNPIPWINAWLSSDNVQVAPQEVEISSYLIGQIDSEVNTDDLGDFEL
notes: N. gonorrhoeae class Ia RNR radical-generating subunit NrdB (β); 377 residues as printed (model holds four residues of the histidine tag, residues 1-346 and 374-376 of 377); expected MW 43253 Da; met-β2: diiron cluster reconstituted (1.8 +/- 0.3 iron per monomer), tyrosyl radical quenched with hydroxyurea; also called NgRNR β; His6-TEV-NgRNR β; source: E. coli T7 Express, pET30a(+), purified …
B1: binds.
